Laboratory results published in article PMC9482650, “Quantitative fragmentomics allow affinity mapping of interactomes” (Nature Communications, 2022).

Experiments:
Assay in all cases: holdup assay
Design in all cases: key: below the threshold = too weak to quantify, mostly under pKd 3.1 to 4
[1] = target: MAGI1_1, Q96QZ7
[2] = target: T1, GRIP1_4, Q9Y3R0
T1 sequence (Q9Y3R0 467-571, limits assumed, looked up): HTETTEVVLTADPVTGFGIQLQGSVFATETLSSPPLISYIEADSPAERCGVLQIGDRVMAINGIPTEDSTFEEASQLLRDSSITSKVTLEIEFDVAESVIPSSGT

[3] = target: T2, HTRA3, P83110
T2 sequence (P83110 354-453, limits assumed, looked up): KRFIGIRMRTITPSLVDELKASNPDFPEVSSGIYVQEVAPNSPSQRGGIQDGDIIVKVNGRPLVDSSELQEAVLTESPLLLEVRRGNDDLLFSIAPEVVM

[4] = target: MAGI2_5, Q86UL8
MAGI2_5, Q86UL8, sequence (Q86UL8 915-1017): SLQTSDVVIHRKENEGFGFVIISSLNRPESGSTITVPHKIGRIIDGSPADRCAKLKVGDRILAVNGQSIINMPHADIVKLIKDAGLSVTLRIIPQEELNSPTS

[5] = target: NHERF2_2, Q15599
NHERF2_2, Q15599, sequence (Q15599 142-238): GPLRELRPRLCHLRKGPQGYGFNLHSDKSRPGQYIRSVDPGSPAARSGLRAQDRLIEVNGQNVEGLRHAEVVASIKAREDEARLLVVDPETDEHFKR

[6] = target: T3, DFNB31_3, Q9P202
T3 sequence (Q9P202 811-907, limits assumed, looked up): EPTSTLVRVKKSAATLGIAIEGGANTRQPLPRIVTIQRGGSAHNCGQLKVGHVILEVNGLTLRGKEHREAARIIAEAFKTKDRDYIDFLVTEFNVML

[7] = target: Inadl_10, Q8NI35
Inadl_10, Q8NI35, sequence (Q8NI35 1673-1763): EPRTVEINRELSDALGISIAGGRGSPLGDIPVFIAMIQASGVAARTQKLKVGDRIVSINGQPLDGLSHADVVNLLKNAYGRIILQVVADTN

[8] = target: T4, ARHGAP21, Q5T5U3
T4 sequence (Q5T5U3 45-169, limits assumed, looked up): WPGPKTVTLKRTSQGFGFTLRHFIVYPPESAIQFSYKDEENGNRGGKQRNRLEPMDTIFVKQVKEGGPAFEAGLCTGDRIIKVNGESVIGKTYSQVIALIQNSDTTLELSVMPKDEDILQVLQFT

[9] = target: FRMPD2_2, Q68DX3
FRMPD2_2, Q68DX3, sequence (Q68DX3 944-1038): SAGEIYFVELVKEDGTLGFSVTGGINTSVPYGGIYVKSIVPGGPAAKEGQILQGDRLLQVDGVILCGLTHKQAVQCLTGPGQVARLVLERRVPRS

[10] = target: T5, RAPGEF6, Q8TEU7
T5 sequence (Q8TEU7 525-625, limits assumed, looked up): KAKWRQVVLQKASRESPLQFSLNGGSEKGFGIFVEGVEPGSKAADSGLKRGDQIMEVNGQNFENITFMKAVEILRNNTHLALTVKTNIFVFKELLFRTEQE

[11] = target: T6, DLG3_3, Q92796
T6 sequence (Q92796 374-475, limits assumed, looked up): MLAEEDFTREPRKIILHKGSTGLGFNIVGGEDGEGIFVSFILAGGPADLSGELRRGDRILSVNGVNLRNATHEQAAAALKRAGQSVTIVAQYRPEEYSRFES

[12] = target: T7, PDZRN3_1, Q9UPQ7
T7 sequence (Q9UPQ7 244-349, limits assumed, looked up): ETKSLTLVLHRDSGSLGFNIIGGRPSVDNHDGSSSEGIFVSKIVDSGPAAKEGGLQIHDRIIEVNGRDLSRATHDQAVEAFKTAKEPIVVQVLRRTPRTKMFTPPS

[13] = target: T8, SNTB1, Q13884
T8 sequence (Q13884 107-205, limits assumed, looked up): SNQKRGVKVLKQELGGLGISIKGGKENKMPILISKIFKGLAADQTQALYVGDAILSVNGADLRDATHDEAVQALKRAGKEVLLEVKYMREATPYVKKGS

[14] = target: T9, LNX2_2, Q8N448
T9 sequence (Q8N448 334-432, limits assumed, looked up): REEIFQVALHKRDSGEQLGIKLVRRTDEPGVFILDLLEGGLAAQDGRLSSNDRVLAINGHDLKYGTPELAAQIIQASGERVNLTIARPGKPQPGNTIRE

[15] = target: T10, APBA1_2, Q02410
T10 sequence (Q02410 742-832, limits assumed, looked up): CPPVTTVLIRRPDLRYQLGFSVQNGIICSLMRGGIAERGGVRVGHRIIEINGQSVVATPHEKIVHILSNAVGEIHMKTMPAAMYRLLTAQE

[16] = target: GRIP2_4, Q9C0E4
GRIP2_4, Q9C0E4, sequence (Q9C0E4 446-548): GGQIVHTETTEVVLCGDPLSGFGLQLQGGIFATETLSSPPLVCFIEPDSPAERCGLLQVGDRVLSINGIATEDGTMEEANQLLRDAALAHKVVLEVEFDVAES

[17] = target: Inadl_5, Q8NI35
Inadl_5, Q8NI35, sequence (Q8NI35 673-780): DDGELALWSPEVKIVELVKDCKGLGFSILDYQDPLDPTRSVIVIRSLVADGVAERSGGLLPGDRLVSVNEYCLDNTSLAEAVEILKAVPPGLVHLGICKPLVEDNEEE

[18] = target: Inadl_4, Q8NI35
Inadl_4, Q8NI35, sequence (Q8NI35 547-651): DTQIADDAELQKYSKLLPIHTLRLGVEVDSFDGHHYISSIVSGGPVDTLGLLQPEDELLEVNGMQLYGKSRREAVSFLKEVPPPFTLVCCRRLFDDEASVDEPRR

[19] = target: MAGI2_3, Q86UL8
MAGI2_3, Q86UL8, sequence (Q86UL8 600-682): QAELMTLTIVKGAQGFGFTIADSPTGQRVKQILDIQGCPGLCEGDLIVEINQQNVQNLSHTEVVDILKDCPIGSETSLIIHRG

[20] = target: TJP1_3, Q07157
TJP1_3, Q07157, sequence (Q07157 416-512): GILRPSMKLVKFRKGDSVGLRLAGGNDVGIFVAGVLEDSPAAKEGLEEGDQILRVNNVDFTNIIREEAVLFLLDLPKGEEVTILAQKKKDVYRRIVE

[21] = target: T11, APBA2_1, Q99767
T11 sequence (Q99767 563-664, limits assumed, looked up): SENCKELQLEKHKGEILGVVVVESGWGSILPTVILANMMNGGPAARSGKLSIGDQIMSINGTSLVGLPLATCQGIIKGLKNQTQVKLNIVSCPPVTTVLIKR

[22] = target: DLG5_1, Q8TDM6
DLG5_1, Q8TDM6, sequence (Q8TDM6 617-713): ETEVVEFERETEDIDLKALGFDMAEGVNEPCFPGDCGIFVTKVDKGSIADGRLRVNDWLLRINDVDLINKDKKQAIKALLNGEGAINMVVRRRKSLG

[23] = target: FRMPD3, Q5JV73
FRMPD3, Q5JV73, sequence (Q5JV73 12-100): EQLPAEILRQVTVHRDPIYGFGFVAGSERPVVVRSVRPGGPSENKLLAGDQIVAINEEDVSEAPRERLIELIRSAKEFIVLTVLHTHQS

[24] = target: LAP2, Q96RT1
LAP2, Q96RT1, sequence (Q96RT1 other isoform, or with tags, fused parts or gaps): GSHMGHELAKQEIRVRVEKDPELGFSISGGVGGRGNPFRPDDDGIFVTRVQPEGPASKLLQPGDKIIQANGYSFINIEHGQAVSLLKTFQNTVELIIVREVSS

[25] = target: DLG2_3, Q15700
[26] = target: LNX1_3, Q8TBB1
LNX1_3, Q8TBB1, sequence (Q8TBB1 500-596): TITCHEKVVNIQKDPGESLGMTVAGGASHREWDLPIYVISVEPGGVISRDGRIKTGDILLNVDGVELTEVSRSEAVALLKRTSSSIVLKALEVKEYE

[27] = plain residues with an end cap or a label only (N-terminal biotin on a linker: ttds)
[28] = plain residues with an end cap or a label only (N-terminal biotin on a linker: ahx)

MAGI1_1, Q96QZ7, sequence (Q96QZ7 1-106): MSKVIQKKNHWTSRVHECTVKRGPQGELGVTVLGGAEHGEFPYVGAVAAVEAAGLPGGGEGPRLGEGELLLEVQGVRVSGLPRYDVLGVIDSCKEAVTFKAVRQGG

## QSARYRDTEL [TJP2, Q9UDY2]
[1]; [27]
  pKd: 3.55
[2]; [27]
  pKd: below the threshold
[3]; [27]
  pKd: 3.54
[4]; [27]
  pKd: 3.48
[5]; [27]
  pKd: 4.12
[6]; [27]
  pKd: below the threshold
[7]; [27]
  pKd: below the threshold
[8]; [27]
  pKd: 4.48
[9]; [27]
  pKd: below the threshold
[10]; [27]
  pKd: 3.55
[11]; [27]
  pKd: below the threshold
[12]; [27]
  pKd: 4.67
[13]; [27]
  pKd: 3.86
[14]; [27]
  pKd: below the threshold
[15]; [27]
  pKd: below the threshold
[16]; [27]
  pKd: below the threshold
[17]; [27]
  pKd: below the threshold
[18]; [27]
  pKd: below the threshold
[19]; [27]
  pKd: below the threshold
[20]; [27]
  pKd: below the threshold
[21]; [27]
  pKd: below the threshold
[22]; [27]
  pKd: below the threshold
[23]; [27]
  pKd: below the threshold
[24]; [27]
  pKd: below the threshold
[25]; [27]
  pKd: 3.8
[26]; [27]
  pKd: below the threshold

## TEAKLTETNA [MYO18A, Q92614]
[1]; [28]
  pKd: below the threshold
[2]; [28]
  pKd: below the threshold
[3]; [28]
  pKd: below the threshold
[4]; [28]
  pKd: below the threshold
[5]; [28]
  pKd: below the threshold
[6]; [28]
  pKd: below the threshold
[7]; [28]
  pKd: below the threshold
[8]; [28]
  pKd: below the threshold
[9]; [28]
  pKd: below the threshold
[10]; [28]
  pKd: below the threshold
[11]; [28]
  pKd: below the threshold
[12]; [28]
  pKd: below the threshold
[13]; [28]
  pKd: below the threshold
[14]; [28]
  pKd: below the threshold
[15]; [28]
  pKd: below the threshold
[16]; [28]
  pKd: below the threshold
[17]; [28]
  pKd: below the threshold
[18]; [28]
  pKd: below the threshold
[19]; [28]
  pKd: below the threshold
[20]; [28]
  pKd: below the threshold
[21]; [28]
  pKd: below the threshold
[22]; [28]
  pKd: below the threshold
[23]; [28]
  pKd: below the threshold
[24]; [28]
  pKd: below the threshold
[25]; [28]
  pKd: below the threshold
[26]; [28]
  pKd: below the threshold

## GQDSREETQL [KCNT2, Q6UVM3]
[1]; [27]
  pKd: below the threshold
[2]; [27]
  pKd: below the threshold
[3]; [27]
  pKd: below the threshold
[4]; [27]
  pKd: 4.37
[5]; [27]
  pKd: 5.17
[6]; [27]
  pKd: below the threshold
[7]; [27]
  pKd: below the threshold
[8]; [27]
  pKd: 3.68
[9]; [27]
  pKd: below the threshold
[10]; [27]
  pKd: below the threshold
[11]; [27]
  pKd: below the threshold
[12]; [27]
  pKd: 4.97
[13]; [27]
  pKd: 4.49
[14]; [27]
  pKd: below the threshold
[15]; [27]
  pKd: 3.79
[16]; [27]
  pKd: below the threshold
[17]; [27]
  pKd: below the threshold
[18]; [27]
  pKd: below the threshold
[19]; [27]
  pKd: below the threshold
[20]; [27]
  pKd: below the threshold
[21]; [27]
  pKd: below the threshold
[22]; [27]
  pKd: below the threshold
[23]; [27]
  pKd: below the threshold
[24]; [27]
  pKd: 3.75
[25]; [27]
  pKd: below the threshold
[26]; [27]
  pKd: below the threshold

## IDNDTESTAL [ARHGAP17, Q68EM7]
[1]; [27]
  pKd: below the threshold
[2]; [27]
  pKd: below the threshold
[3]; [27]
  pKd: below the threshold
[4]; [27]
  pKd: 4.47
[5]; [27]
  pKd: 5.24
[6]; [27]
  pKd: below the threshold
[7]; [27]
  pKd: below the threshold
[8]; [27]
  pKd: below the threshold
[9]; [27]
  pKd: below the threshold
[10]; [27]
  pKd: below the threshold
[11]; [27]
  pKd: below the threshold
[12]; [27]
  pKd: 4.44
[13]; [27]
  pKd: 4.13
[14]; [27]
  pKd: below the threshold
[15]; [27]
  pKd: 3.89
[16]; [27]
  pKd: below the threshold
[17]; [27]
  pKd: below the threshold
[18]; [27]
  pKd: below the threshold
[19]; [27]
  pKd: below the threshold
[20]; [27]
  pKd: below the threshold
[21]; [27]
  pKd: below the threshold
[22]; [27]
  pKd: below the threshold
[23]; [27]
  pKd: below the threshold
[24]; [27]
  pKd: below the threshold
[25]; [27]
  pKd: below the threshold
[26]; [27]
  pKd: below the threshold
